Assays:
[1] = target: T1, METTL3 MTD (MTD3);METTL14 MTD-RGG (MTD14-RGG) (human?;human?, UniProt Q86U44;Q9HCE5 255-580;110-456, |); test: EMSA; K+ buffer; EMSA: 2.5 nM RNA, 10 mM potassium (or lithium) phosphate pH 7.5, 25 uM ZnCl2, 10 uM SAM, 0.5 mM DTT, 0.005% Tween 20, 2.5% ficoll, 50 ng/uL yeast tRNA, 4 C, 1 h; GST-RGG: 25 mM Tris-HCl pH 7.5 with 10 mM KCl or LiCl instead of phosphate; details: protein: recombinant;recombinant, tags: Strep-tag II;His6, copies: 1;1, label: 5' FAM
[2] = target: T1, METTL3 MTD (MTD3);METTL14 MTD-RGG …; test: EMSA; Li+ buffer; EMSA: 2.5 nM RNA, 10 mM potassium (or lithium) phosphate pH 7.5, 25 uM ZnCl2, 10 uM SAM, 0.5 mM DTT, 0.005% Tween 20, 2.5% ficoll, 50 ng/uL yeast tRNA, 4 C, 1 h; GST-RGG: 25 mM Tris-HCl pH 7.5 with 10 mM KCl or LiCl instead of phosphate; details: protein: recombinant;recombinant; tags: Strep-tag II;His6; copies: 1;1; label: 5' FAM; no G4
[3] = target: METTL3 MTD (MTD3);METTL14 MTD without RGG (MTD14) (human?;human?, UniProt Q86U44;Q9HCE5 255-580;110-413, |); test: EMSA; K+ buffer; EMSA: 2.5 nM RNA, 10 mM potassium (or lithium) phosphate pH 7.5, 25 uM ZnCl2, 10 uM SAM, 0.5 mM DTT, 0.005% Tween 20, 2.5% ficoll, 50 ng/uL yeast tRNA, 4 C, 1 h; GST-RGG: 25 mM Tris-HCl pH 7.5 with 10 mM KCl or LiCl instead of phosphate; details: protein: recombinant;recombinant; tags: Strep-tag II;His6; copies: 1;1; label: 5' FAM; intramolecular parallel G4 in K+; unfolded in Li+
Sequence of METTL3 MTD (MTD3);METTL14 MTD without RGG (MTD14) (Q86U44 255-580, chain 1 of 2): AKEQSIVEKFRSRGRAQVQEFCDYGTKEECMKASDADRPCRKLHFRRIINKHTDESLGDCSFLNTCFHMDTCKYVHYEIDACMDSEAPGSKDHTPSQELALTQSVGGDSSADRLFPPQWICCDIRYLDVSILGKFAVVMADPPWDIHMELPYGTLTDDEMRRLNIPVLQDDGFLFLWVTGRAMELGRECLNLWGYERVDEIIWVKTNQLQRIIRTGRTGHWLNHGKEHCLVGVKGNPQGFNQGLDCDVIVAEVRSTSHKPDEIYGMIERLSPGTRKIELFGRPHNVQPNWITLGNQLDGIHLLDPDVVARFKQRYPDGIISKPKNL
Sequence of METTL3 MTD (MTD3);METTL14 MTD without RGG (MTD14) (Q9HCE5 110-413, chain 2 of 2): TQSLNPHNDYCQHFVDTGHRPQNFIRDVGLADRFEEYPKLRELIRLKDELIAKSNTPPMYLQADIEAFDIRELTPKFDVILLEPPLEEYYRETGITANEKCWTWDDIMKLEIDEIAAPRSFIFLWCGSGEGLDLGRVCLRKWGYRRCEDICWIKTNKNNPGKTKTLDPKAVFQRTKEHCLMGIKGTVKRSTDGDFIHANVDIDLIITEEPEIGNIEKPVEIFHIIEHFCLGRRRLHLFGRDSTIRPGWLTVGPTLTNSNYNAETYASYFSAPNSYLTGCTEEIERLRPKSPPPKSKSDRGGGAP

T1 sequence (Q86U44 255-580, chain 1 of 2): as the sequence (Q86U44 255-580, chain 1 of 2) above
T1 sequence (Q9HCE5 110-456, chain 2 of 2): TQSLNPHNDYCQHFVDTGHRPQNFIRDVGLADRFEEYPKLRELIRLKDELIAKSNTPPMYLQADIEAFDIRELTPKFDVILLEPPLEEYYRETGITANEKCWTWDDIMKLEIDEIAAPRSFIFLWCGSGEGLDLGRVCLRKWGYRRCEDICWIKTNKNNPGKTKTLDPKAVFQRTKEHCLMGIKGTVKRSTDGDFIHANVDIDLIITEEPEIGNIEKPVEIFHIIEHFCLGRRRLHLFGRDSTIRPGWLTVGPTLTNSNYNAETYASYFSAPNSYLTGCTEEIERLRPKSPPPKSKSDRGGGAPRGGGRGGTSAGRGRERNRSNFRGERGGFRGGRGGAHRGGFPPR

UUAGGGUUAGGGUUAGGGUUUUAGACAUUUUUUAGGG (structured_RNA) [G4 RNA2]
Kd ([1]; intramolecular G4 in K+, loops 3-3-16): 36 ± 11 nM

UGAGUGUGAGUGUUUUAGACAUUUUUGAGUGUGAGUG (ssRNA) [Non-G4 RNA1]
Kd ([1]; no G4): 209 ± 94 nM | Kd [2]: 149 ± 11 nM

UUAGGGUUAGGGUUUUAGACAUUUUUUAGGGUUAGGG (structured_RNA) [G4 RNA1]
Kd ([1]; intramolecular parallel G4 in K+, unfolded in Li+): 35 ± 12 nM | Kd [3]: 419 ± 109 nM

UUAGGGUUAGGGUUAGGGUUAGGGAGACAUUUUUUUUUUUU (structured_RNA) [G4 RNA4]
Kd ([1]; intramolecular G4 in K+, loops 3-3-3): 35 ± 9 nM

UUUUUUUUUUUUUUAGGGUUAGGGAGACAUUAGGGUUAGGG (structured_RNA) [G4 RNA3]
Kd ([1]; intramolecular G4 in K+, loops 3-8-3): 29 ± 13 nM

UUUUUUUUUUUUUGAGUGUGAGUGAGACAUGAGUGUGAGUG (ssRNA) [Non-G4 RNA2]
Kd ([1]; no G4): 309 ± 85 nM

Source: PMC8755082, “Recognition of G-quadruplex RNA by a crucial RNA methyltransferase component, METTL14”
